Results published in the supplement of paper PMC10126150.
± gives the standard deviation of the averaged measurements.

System: ATP
Assay: switch fluorescence ratio, 500 uM ATP over buffer (Cy3 cluster intensity, sum of 5 cycles each) (fold (ratio)); higher = stronger signal-on switching upon ATP binding; sequences stand for … in TCGTCGGCAGCGTCAGATGTGTATAAGAGACAGTTTTTTTTTTTTTTTTTTTTTTTTT…TC
Conditions: aptamer strand: ATP DNA aptamer (quencher-CACCTGGGGGAGTATTGCGGAGGAAGG + anchor), 100 nM annealed; ATP concentration: 500 uM
Summary of the method: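 The quencher-labelled ATP aptamer, at 100 nM, was annealed to Cy3-labelled switching-strand clusters on a modified Illumina MiSeq flow-cell. The clusters were imaged in selection buffer, then after 15 min with 500 uM ATP at 22 °C, and this buffer/ATP cycle ran five times with NaOH stripping and re-annealing between runs. Per-cluster fluorescence ratios, summed target-cycle over summed buffer-cycle Cy3 intensity, were averaged per switch-domain sequence. Clusters outside 100-1000 RFU were excluded.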
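Further: ATP exposure 15 min at 22 °C before imaging.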

Row | Sequence | switch fluorescence ratio
1 | TTTTCGGCTC | 1.04 ± 0.048
2 | TTTTCGGGAT | 1.19 ± 0.42
3 | TTTTCGGTTT | 1 ± 0.051
4 | TTTTCGTCCT | 1.18 ± 0.18
5 | TTTTCGTGTT | 1 ± 0.032
6 | TTTTCGTTTT | 1.04 ± 0.082
7 | TTTTCTGAGG | 1.01 ± 0.044
8 | TTTTCTTGAA | 0.9852 ± 0.0038
9 | TTTTCTTTGC | 1.03 ± 0.042
10 | TTTTCTTTTT | 1.06 ± 0.14
11 | TTTTGAAGTG | 1.02 ± 0.034
12 | TTTTGAAGTT | 1 ± 0.039
13 | TTTTGAATCT | 0.953 ± 0.033
14 | TTTTGAATTG | 0.9841 ± 0.005
15 | TTTTGACAGT | 0.996 ± 0.039
16 | TTTTGACATT | 1.05 ± 0.032
17 | TTTTGACCGA | 0.976 ± 0.073
18 | TTTTGACGAG | 1.016 ± 0.0033
19 | TTTTGACGTT | 1.04 ± 0.042
20 | TTTTGAGATA | 0.97489 ± 3.4e-05
21 | TTTTGAGGAC | 1.034 ± 0.0035
22 | TTTTGAGGGA | 0.9877 ± 0.002
23 | TTTTGATAGT | 0.991 ± 0.026

Row | Sequence | switch fluorescence ratio
24 | TTTTGATCCG | 1.09 ± 0.082
25 | TTTTGATTCT | 1.01 ± 0.028
26 | TTTTGCAAAT | 1.13 ± 0.11
27 | TTTTGCACTT | 1.022 ± 0.0012
28 | TTTTGCAGGA | 1.05 ± 0.14
29 | TTTTGCATTG | 1.07 ± 0.058
30 | TTTTGCCGTT | 1.01 ± 0.019
31 | TTTTGCGAAC | 1.94 ± 1.2
32 | TTTTGCGATT | 1.015 ± 0.0065
33 | TTTTGCGCCG | 1.06 ± 0.06
34 | TTTTGCGGGA | 1.01 ± 0.057
35 | TTTTGCGTCT | 1.06 ± 0.071
36 | TTTTGCTGTA | 1.04 ± 0.099
37 | TTTTGCTTGT | 0.996 ± 0.015
38 | TTTTGCTTTT | 0.998 ± 0.027
39 | TTTTGGAACG | 0.99 ± 0.031
40 | TTTTGGAAGC | 1.03 ± 0.034
41 | TTTTGGAAGT | 0.993 ± 0.042
42 | TTTTGGACGC | 1.26 ± 0.43
43 | TTTTGGATAA | 1.016 ± 0.0051
44 | TTTTGGATGC | 1.05 ± 0.045
45 | TTTTGGCAAC | 1.04 ± 0.079
46 | TTTTGGCCGT | 1.1 ± 0.15

Row | Sequence | switch fluorescence ratio
47 | TTTTGGCCTT | 0.997 ± 0.015
48 | TTTTGGCGCA | 1.01 ± 0.0046
49 | TTTTGGCGCT | 1.005 ± 0.008
50 | TTTTGGCGTA | 1.04 ± 0.037
51 | TTTTGGGCCC | 1.04 ± 0.076
52 | TTTTGGGCTT | 1.12 ± 0.22
53 | TTTTGGGGC | 1.04 ± 0.013
54 | TTTTGGGGGG | 1.02 ± 0.081
55 | TTTTGGGTCC | 1.06 ± 0.04
56 | TTTTGGGTTA | 0.992 ± 0.043
57 | TTTTGGGTTG | 1.03 ± 0.076
58 | TTTTGGTATA | 1.05 ± 0.055
59 | TTTTGGTCCG | 1.034 ± 0.0074
60 | TTTTGGTGG | 0.974 ± 0.033
61 | TTTTGGTTAG | 0.983 ± 0.015
62 | TTTTGGTTTG | 1 ± 0.034
63 | TTTTGTACGC | 1.097 ± 0.0065
64 | TTTTGTAGCT | 0.963 ± 0.023
65 | TTTTGTCAAA | 1.02 ± 0.035
66 | TTTTGTCACT | 1.034 ± 0.0031
67 | TTTTGTGTTC | 0.993 ± 0.027
68 | TTTTGTTAGA | 1.03 ± 0.022
69 | TTTTGTTGTG | 0.999 ± 0.034

Row | Sequence | switch fluorescence ratio
70 | TTTTGTTTCA | 1 ± 0.022
71 | TTTTGTTTCG | 1.01 ± 0.028
72 | TTTTGTTTGT | 1.01 ± 0.037
73 | TTTTGTTTT | 1.02 ± 0.027
74 | TTTTGTTTTC | 1.11 ± 0.23
75 | TTTTTAAA | 0.988 ± 0.017
76 | TTTTTAAAGT | 0.993 ± 0.026
77 | TTTTTAACTC | 1.03 ± 0.021
78 | TTTTTAAGAG | 1 ± 0.014
79 | TTTTTAAGGA | 1.04 ± 0.048
80 | TTTTTAAGGT | 1 ± 0.015
81 | TTTTTAATGT | 0.998 ± 0.062
82 | TTTTTACAGA | 1.04 ± 0.025
83 | TTTTTACCTT | 1.07 ± 0.046
84 | TTTTTACGAA | 1.01 ± 0.022
85 | TTTTTACGGC | 1.02 ± 0.016
86 | TTTTTACTGT | 1.01 ± 0.017
87 | TTTTTAGAAG | 0.985 ± 0.01
88 | TTTTTAGGAA | 1.04 ± 0.055
89 | TTTTTAGGAT | 1.11 ± 0.17
90 | TTTTTAGTAT | 1.01 ± 0.035
91 | TTTTTATCAT | 0.998 ± 0.037
92 | TTTTTATCTG | 0.9654 ± 0.002

Row | Sequence | switch fluorescence ratio
93 | TTTTTATGAC | 1.01 ± 0.029
94 | TTTTTATGAT | 0.983 ± 0.022
95 | TTTTTATGC | 0.975 ± 0.071
96 | TTTTTATGCC | 0.963 ± 0.05
97 | TTTTTATGCG | 0.999 ± 0.06
98 | TTTTTATTAG | 0.983 ± 0.027
99 | TTTTTATTGC | 1 ± 0.035
100 | TTTTTCAACC | 1.02 ± 0.017
101 | TTTTTCAAGT | 1.1 ± 0.29
102 | TTTTTCACGC | 1.04 ± 0.019
103 | TTTTTCAGTG | 0.991 ± 0.039
104 | TTTTTCCAT | 1 ± 0.02
105 | TTTTTCCATT | 1.01 ± 0.027
106 | TTTTTCCTGT | 1.01 ± 0.011
107 | TTTTTCCTTG | 1.04 ± 0.018
108 | TTTTTCCTTT | 1.02 ± 0.033
109 | TTTTTCGCTT | 1.06 ± 0.077
110 | TTTTTCGTCA | 1.037 ± 0.0074
111 | TTTTTCGTGT | 0.975 ± 0.038
112 | TTTTTCTATT | 0.988 ± 0.019
113 | TTTTTCTTCG | 1.21 ± 0.099
114 | TTTTTCTTTG | 1.04 ± 0.065
115 | TTTTTGACAC | 1.26 ± 0.38

Row | Sequence | switch fluorescence ratio
116 | TTTTTGAGAG | 0.998 ± 0.032
117 | TTTTTGAGC | 1.011 ± 0.0086
118 | TTTTTGAGGA | 0.995 ± 0.017
119 | TTTTTGCCTA | 1.015 ± 0.0089
120 | TTTTTGCGCT | 1.04 ± 0.047
121 | TTTTTGCTAG | 0.986 ± 0.013
122 | TTTTTGCTCA | 0.9912 ± 0.0055
123 | TTTTTGCTGT | 2.91 ± 3.3
124 | TTTTTGCTTT | 1.06 ± 0.099
125 | TTTTTGGCAT | 1.01 ± 0.033
126 | TTTTTGGCGC | 1.01 ± 0.032
127 | TTTTTGGGTT | 1.02 ± 0.048
128 | TTTTTGGTAT | 1.01 ± 0.047
129 | TTTTTGGTTA | 1 ± 0.016
130 | TTTTTGTAAT | 1.04 ± 0.055
131 | TTTTTGTATA | 0.979 ± 0.027
132 | TTTTTGTATT | 1.03 ± 0.02
133 | TTTTTGTGA | 0.995 ± 0.026
134 | TTTTTGTTC | 0.99 ± 0.023
135 | TTTTTTACGG | 1.02 ± 0.019
136 | TTTTTTAGGA | 1.01 ± 0.019
137 | TTTTTTAGGG | 0.988 ± 0.029
138 | TTTTTTATAT | 0.987 ± 0.025

Row | Sequence | switch fluorescence ratio
139 | TTTTTTATCA | 0.98 ± 0.029
140 | TTTTTTCATG | 0.988 ± 0.033
141 | TTTTTTCGGC | 0.988 ± 0.022
142 | TTTTTTCGTC | 1.02 ± 0.011
143 | TTTTTTGGAT | 1.01 ± 0.022
144 | TTTTTTGGGC | 0.99 ± 0.068
145 | TTTTTTGTCG | 0.993 ± 0.053
146 | TTTTTTGTGA | 1 ± 0.08
147 | TTTTTTGTGG | 0.978 ± 0.031
148 | TTTTTTTAAC | 0.999 ± 0.032
149 | TTTTTTTACC | 1.01 ± 0.021
150 | TTTTTTTACT | 1.02 ± 0.029
151 | TTTTTTTAGA | 0.995 ± 0.022
152 | TTTTTTTAT | 1.014 ± 0.01
153 | TTTTTTTCTC | 0.992 ± 0.056
154 | TTTTTTTTAT | 1 ± 0.024
155 | TTTTTTTTC | 1.045 ± 0.0071
156 | TTTTTTTTCA | 1.01 ± 0.053
